From patent US20200199241A1 (Chugai, published 2020) come the findings set out here.

Sequences and labels used below:
B1: IgG1-F1309 (antibody)
heavy: QVQLQESGPGLVKPSETLSLTCAVSGHSISHDHAWSWVRQPPGEGLEWIGFISYSGITNYNPSLQGRVTISRDNSKNTLYLQMNSLRAEDTAVYYCARSLARTTAMDYWGEGTLVTVSSASTKGPSVFPLAPSSKSTSGGTAALGCLVKDYFPEPVTVSWNSGALTSGVHTFPAVLQSSGLYSLSSVVTVPSSSLGTQTYICNVNHKPSNTKVDKKVEPKSCDKTHTCPPCPAPELRGGPKVFLFPPKPKDTLYISRTPEVTCVVVDVSHEDPEVKFNWYVDGVEVHNAKTKPREEQYNSTYRVVSVLTVLHQDWLNGKEYKCKVSNKALPAPIEKTISKAKGQPREPQVYTLPPSRDELTKNQVSLTCLVKGFYPSDIAVEWESNGQPENNYKTTPPVLDSDGSFFLYSKLTVDKSRWQQGNVFSCSVMHEALHYHVTAKALSLSP
light: not shown
notes: EU numbering; copies: 2 + 2
B2: IgG1-F1312 (antibody)
heavy: QVQLQESGPGLVKPSETLSLTCAVSGHSISHDHAWSWVRQPPGEGLEWIGFISYSGITNYNPSLQGRVTISRDNSKNTLYLQMNSLRAEDTAVYYCARSLARTTAMDYWGEGTLVTVSSASTKGPSVFPLAPSSKSTSGGTAALGCLVKDYFPEPVTVSWNSGALTSGVHTFPAVLQSSGLYSLSSVVTVPSSSLGTQTYICNVNHKPSNTKVDKKVEPKSCDKTHTCPPCPAPELRGGPKVFLFPPKPKDTLYISRTPEVTCVVVDVSHEDPEVKFNWYVDGVEVHNAKTKPREEQYNSTYRVVSVLTVLHQDWLNGKEYKCKVSNKALPAPIEKTISKAKGQPREPQVYTLPPSRDELTKNQVSLTCLVKGFYPSDIAVEWESNGQPENNYKTTPPVLDSDGSFFLYSKLTVDKSRWQQGNLFLCSVMHEALDYHVTQKSLSLSP
light: not shown
notes: EU numbering; copies: 2 + 2
B3: IgG1-F1311 (antibody)
heavy: QVQLQESGPGLVKPSETLSLTCAVSGHSISHDHAWSWVRQPPGEGLEWIGFISYSGITNYNPSLQGRVTISRDNSKNTLYLQMNSLRAEDTAVYYCARSLARTTAMDYWGEGTLVTVSSASTKGPSVFPLAPSSKSTSGGTAALGCLVKDYFPEPVTVSWNSGALTSGVHTFPAVLQSSGLYSLSSVVTVPSSSLGTQTYICNVNHKPSNTKVDKKVEPKSCDKTHTCPPCPAPELRGGPKVFLFPPKPKDTLYISRTPEVTCVVVDVSHEDPEVKFNWYVDGVEVHNAKTKPREEQYNSTYRVVSVLTVLHQDWLNGKEYKCKVSNKALPAPIEKTISKAKGQPREPQVYTLPPSRDELTKNQVSLTCLVKGFYPSDIAVEWESNGQPENNYKTTPPVLDSDGSFFLYSKLTVDKSRWQQGNAFACSVMHEALDYHVTQKSLSLSP
light: not shown
notes: EU numbering; copies: 2 + 2
B4: IgG1-F1310 (antibody)
heavy: QVQLQESGPGLVKPSETLSLTCAVSGHSISHDHAWSWVRQPPGEGLEWIGFISYSGITNYNPSLQGRVTISRDNSKNTLYLQMNSLRAEDTAVYYCARSLARTTAMDYWGEGTLVTVSSASTKGPSVFPLAPSSKSTSGGTAALGCLVKDYFPEPVTVSWNSGALTSGVHTFPAVLQSSGLYSLSSVVTVPSSSLGTQTYICNVNHKPSNTKVDKKVEPKSCDKTHTCPPCPAPELRGGPKVFLFPPKPKDTLYISRTPEVTCVVVDVSHEDPEVKFNWYVDGVEVHNAKTKPREEQYNSTYRVVSVLTVLHQDWLNGKEYKCKVSNKALPAPIEKTISKAKGQPREPQVYTLPPSRDELTKNQVSLTCLVKGFYPSDIAVEWESNGQPENNYKTTPPVLDSDGSFFLYSKLTVDKSRWQQGNVFSCSVMHEALHYHVTLKLLSLSP
light: not shown
notes: EU numbering; copies: 2 + 2
B5: IgG1-F1313 (antibody)
heavy: QVQLQESGPGLVKPSETLSLTCAVSGHSISHDHAWSWVRQPPGEGLEWIGFISYSGITNYNPSLQGRVTISRDNSKNTLYLQMNSLRAEDTAVYYCARSLARTTAMDYWGEGTLVTVSSASTKGPSVFPLAPSSKSTSGGTAALGCLVKDYFPEPVTVSWNSGALTSGVHTFPAVLQSSGLYSLSSVVTVPSSSLGTQTYICNVNHKPSNTKVDKKVEPKSCDKTHTCPPCPAPELRGGPKVFLFPPKPKDTLYISRTPEVTCVVVDVSHEDPEVKFNWYVDGVEVHNAKTKPREEQYNSTYRVVSVLTVLHQDWLNGKEYKCKVSNKALPAPIEKTISKAKGQPREPQVYTLPPSRDELTKNQVSLTCLVKGFYPSDIAVEWESNGQPENNYKTTPPVLDSDGSFFLYSKLTVDKSRWQQGNVFSCSVMHEALDYHVTAKALSLSP
light: not shown
notes: EU numbering; copies: 2 + 2

T1 sequence (chain, as listed by the source limits assumed, chain 1 of 2): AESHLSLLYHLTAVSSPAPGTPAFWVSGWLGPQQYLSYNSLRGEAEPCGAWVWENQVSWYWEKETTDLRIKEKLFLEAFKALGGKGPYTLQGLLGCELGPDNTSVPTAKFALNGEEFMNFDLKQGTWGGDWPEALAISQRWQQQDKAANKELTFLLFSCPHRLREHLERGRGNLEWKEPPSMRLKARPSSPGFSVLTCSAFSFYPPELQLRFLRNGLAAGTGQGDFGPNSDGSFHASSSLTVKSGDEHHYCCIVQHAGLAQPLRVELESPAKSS
T1 sequence (P61769 21-119 limits assumed, chain 2 of 2): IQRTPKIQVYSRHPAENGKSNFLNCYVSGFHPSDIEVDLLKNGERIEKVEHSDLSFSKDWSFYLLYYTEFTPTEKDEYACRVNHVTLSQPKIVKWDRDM

The assay concerns the target T1, soluble human FcRn complexed with β2-microglobulin (human, UniProt P61769 21-119, limits assumed).
T1 construct: also called hFcRn
Put plainly: Biacore SPR, pH 7.0.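 Further: test antibodies captured on a Protein L chip with human FcRn flowed over as analyte, KD obtained as the ratio of dissociation to association rate constants.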
In turn, B1 gave a dissociation constant (Kd) of 126 nM. In turn, B2 gave a Kd of 179 nM. The figure for B3 is 369 nM. B4 had an equilibrium dissociation constant (Kd) of 228 nM.

Molecule B5 came in with a Kd of 177 nM.

The term Kd denotes a measure of binding affinity in units of concentration.
